Consider one molecule from US20210038648A1 (THOMAS JEFFERSON UNIVERSITY, published 2021).

For assay [1], the target named is T1, human GUCY2C (hGUCY2C) on cells (human, UniProt P25092 24-1073).
T1 construct: whole, on cells; also called guanylyl cyclase C; GCC
Nature of the assay: flow cytometry on CT26.hGUCY2C cells. From the text:
Cells were authenticated by the original suppliers and routinely authenticated by morphology, growth, antibiotic resistance (where appropriate GUCY2C and β-galactosidase expression, and pattern of metastasis in vivo and routinely screened for mycoplasma using the Universal Mycoplasma Detection Kit (ATCC, Cat. No. 30-1012K). Before injection into mice, cells were routinely cultured for <2weeks. The gene encoding human GUCY2C was codon-optimized and synthesized (Gene Art, Life Technologies) and cloned into the retroviral construct pMSCVpuro (Clontech). CT26.hGUCY2C and CT26.CL25.hGUCY2C were generated by transducing CT26 and CT26.CL25 cells with retroviral supernatants encoding hGUCY2C, followed by selection with puromycin. […] The single chain variable fragment (scFv) from the human GUCY2C-specific antibody 5F9 was cloned into the pFUSE-rIgG-Fc2 (IL2ss) plasmid (Invivogen), producing a 5F9 scFv fusion protein with rabbit Fc (5F9-rFc), 5F9-rFc was collected in supernatants of transfected 293F cells (Life Technologies), titrated in ELISA plates (Nunc-Immuno PolySorp) coated with BSA or recombinant 6×His-tagged hGUCY2C extracellular domain (6×His-hGUCY2CECD) protein purified under contract from HEK293-6E cells by GenScript and detected with HRP-conjugated goat anti-rabbit (Jackson ImmunoResearch). […]

Assay [2] concerns the target T2, recombinant 6xHis-tagged hGUCY2C extracellular domain (6xHis-hGUCY2CECD) (human, UniProt P25092 24-430).
T2 construct: extracellular domain; also called purified hGUCY2C extracellular domain; immobilized hGUCY2CECD protein; not shown: 6xHis tag
Put plainly: ELISA; plate coated with 6xHis-hGUCY2CECD, 5F9-rFc titrated. (In general: ELISA stands for enzyme-linked immunosorbent assay.)

T2 sequence (P25092 24-430): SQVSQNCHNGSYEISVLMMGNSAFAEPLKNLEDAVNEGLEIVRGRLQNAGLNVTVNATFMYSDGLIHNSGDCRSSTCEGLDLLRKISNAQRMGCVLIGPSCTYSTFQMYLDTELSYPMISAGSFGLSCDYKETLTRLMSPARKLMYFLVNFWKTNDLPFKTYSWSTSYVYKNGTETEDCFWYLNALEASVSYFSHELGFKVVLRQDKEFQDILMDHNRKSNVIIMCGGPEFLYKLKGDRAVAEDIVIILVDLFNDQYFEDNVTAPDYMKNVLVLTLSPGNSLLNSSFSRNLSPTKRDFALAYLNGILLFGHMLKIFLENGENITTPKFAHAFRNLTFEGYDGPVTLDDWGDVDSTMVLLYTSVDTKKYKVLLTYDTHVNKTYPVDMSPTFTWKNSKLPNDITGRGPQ
T1 sequence (P25092 24-1073): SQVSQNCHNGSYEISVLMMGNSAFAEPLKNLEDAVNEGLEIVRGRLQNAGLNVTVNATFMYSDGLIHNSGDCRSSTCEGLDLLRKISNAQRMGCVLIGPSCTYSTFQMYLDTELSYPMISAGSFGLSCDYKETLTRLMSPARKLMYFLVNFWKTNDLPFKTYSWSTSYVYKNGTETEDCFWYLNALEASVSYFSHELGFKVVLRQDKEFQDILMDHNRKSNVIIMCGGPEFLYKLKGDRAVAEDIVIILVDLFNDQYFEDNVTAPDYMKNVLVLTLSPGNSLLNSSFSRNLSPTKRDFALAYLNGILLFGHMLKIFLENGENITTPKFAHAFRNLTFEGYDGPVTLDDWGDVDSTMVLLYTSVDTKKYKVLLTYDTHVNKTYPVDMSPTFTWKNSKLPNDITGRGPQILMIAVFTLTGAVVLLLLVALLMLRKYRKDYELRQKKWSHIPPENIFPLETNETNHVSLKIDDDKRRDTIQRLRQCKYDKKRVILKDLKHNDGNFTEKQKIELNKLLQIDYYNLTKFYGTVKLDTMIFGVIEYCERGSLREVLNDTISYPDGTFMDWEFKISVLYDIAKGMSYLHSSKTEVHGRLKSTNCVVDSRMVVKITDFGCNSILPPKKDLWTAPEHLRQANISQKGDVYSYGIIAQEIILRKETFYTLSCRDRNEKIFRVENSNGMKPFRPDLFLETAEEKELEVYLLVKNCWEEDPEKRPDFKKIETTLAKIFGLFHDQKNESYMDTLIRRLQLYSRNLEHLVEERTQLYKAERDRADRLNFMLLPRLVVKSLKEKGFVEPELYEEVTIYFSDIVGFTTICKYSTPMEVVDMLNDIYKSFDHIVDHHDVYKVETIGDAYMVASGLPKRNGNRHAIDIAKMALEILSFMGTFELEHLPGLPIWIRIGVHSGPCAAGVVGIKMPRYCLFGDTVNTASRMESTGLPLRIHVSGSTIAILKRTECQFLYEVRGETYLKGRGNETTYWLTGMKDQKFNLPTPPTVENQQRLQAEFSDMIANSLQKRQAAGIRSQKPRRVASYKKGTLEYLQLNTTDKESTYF

B1: 5F9 scFv fusion protein with rabbit Fc (5F9-rFc) (Fc fusion)
chain: EIVMTQSPATLSVSPGERATLSCRASQSVSRNLAWYQQKPGQAPRLLIYGASTRATGIPARFSGSGSGTEFTLTIGSLQSEDFAVYYCQQYKTWPRTFGQGTNVEIKASGGGGSGGGGSGGGGSGGGGSELQVQLQQWGAGLLKPSETLSLTCAVFGGSFSGYYWSWIRQPPGKGLEWIGEINHRGNTNDNPSLKSRVTISVDTSKNQFALKLSSVTAADTAVYYCARERGYTYGNFDHWGQGTLVTVSS
notes: Secreted from transfected 293F cells and used as supernatant; also called recombinant 5F9 antibody; 5F9 antibody; not shown: rabbit IgG Fc from plasmid pFUSE-rIgG-Fc2 (IL2ss) (Invivogen)
Turning to B1, the binding result in assay [1] and in assay [2] was “binds” in each case.
